# Entries after “also recorded” stand apart in the source; their conditions may differ. Where no end group is shown, it is not given here.
# B1: MH2-wZIP4-F2 (peptide)
# peptide: GEWTWDDA
# notes: also called P4236
# B2: W2W11-trpzip2 (peptide)
# peptide: SWTVENGKVTWK
# B3: gb1 (peptide)
# peptide: GEWTYDDATKTFTVTE-NH2
# notes: also called gb1 peptide; gb1-NH2
# B4: IRFTDGEWTWDDATKTWTWTE-GGS-VHpro10 (protein)
# chain: IRFTDGEWTWDDATKTWTWTEGGSDVQLQASGGGLVQAGGSLRLTCAASGRTFDRYGWFRQAPGKEREFVASIGTRLHYADSVKGRFTISRDNAKSTAFLEMNSLKPEDTAVYYCAAAESTRNWYYKMSNDYDYWGQGTQVTVSSLEHHHHHH
# modifications: WZ4-GGS-VHpro10 - molecule of Formula (I)
# notes: trpzip4-VH conjugate, VHpro10 is a prothrombin-specific antibody VHH fragment
# B5: MH2-wZIP4-F1 (peptide)
# peptide: IRFTDGEWTWDDA
# notes: also called P4233
# B6: HP7 (peptide)
# peptide: KTWNPATGKWTE
# Tests used:
# rat-tail collagen type I [1] = molecular target: rat-tail collagen type I (Rattus norvegicus, UniProt P02454+P02466); experiment: Collagen binding/responsiveness of peptides by proton NMR and H-15N HSQC spectroscopy; parameters: rat-tail collagen type I (at 4 mg/ml in 0.02 N acetic acid); purchased BD Bioscience; host or cells: rat tail (tissue-derived); conditions: for response to / binding of collagen (NMR spectral perturbations): peptide free in solution vs in the presence of collagen; for NMR perturbations after collagen gelation (polymerization); reversibility of collagen binding: before vs after collagen gelation
# rat-tail collagen type I (Rattus norvegicus, UniProt P02454+P02466), sequence (P02454 152-1207 limits assumed): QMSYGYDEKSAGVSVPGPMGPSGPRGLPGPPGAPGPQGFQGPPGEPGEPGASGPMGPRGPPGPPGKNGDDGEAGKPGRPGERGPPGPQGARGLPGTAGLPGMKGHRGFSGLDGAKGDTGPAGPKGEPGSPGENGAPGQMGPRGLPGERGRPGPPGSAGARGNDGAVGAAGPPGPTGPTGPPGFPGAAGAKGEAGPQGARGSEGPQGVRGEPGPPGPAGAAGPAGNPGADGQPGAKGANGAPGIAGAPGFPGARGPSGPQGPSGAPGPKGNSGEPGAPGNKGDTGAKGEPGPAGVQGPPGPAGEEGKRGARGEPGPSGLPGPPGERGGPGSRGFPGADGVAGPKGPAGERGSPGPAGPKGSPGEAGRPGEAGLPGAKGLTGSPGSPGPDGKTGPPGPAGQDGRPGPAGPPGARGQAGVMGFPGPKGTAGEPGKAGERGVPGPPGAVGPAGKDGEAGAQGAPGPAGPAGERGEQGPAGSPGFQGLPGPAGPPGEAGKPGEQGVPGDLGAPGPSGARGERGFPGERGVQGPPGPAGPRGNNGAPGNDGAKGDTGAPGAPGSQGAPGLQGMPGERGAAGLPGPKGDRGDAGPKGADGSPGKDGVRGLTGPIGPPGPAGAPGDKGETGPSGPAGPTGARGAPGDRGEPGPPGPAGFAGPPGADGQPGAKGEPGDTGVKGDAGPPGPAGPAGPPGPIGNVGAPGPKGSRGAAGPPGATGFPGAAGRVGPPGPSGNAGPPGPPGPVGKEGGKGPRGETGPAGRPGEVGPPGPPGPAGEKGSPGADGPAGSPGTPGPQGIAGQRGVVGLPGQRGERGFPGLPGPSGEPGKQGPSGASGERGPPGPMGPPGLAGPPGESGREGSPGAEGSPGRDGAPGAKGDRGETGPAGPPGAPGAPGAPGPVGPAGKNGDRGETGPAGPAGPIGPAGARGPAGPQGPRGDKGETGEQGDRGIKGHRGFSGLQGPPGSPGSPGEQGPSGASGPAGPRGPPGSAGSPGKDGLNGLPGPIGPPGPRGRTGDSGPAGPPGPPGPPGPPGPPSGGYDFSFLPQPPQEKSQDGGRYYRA
# rat-tail collagen type I (Rattus norvegicus, UniProt P02454+P02466), sequence (P02466 86-1125 limits assumed): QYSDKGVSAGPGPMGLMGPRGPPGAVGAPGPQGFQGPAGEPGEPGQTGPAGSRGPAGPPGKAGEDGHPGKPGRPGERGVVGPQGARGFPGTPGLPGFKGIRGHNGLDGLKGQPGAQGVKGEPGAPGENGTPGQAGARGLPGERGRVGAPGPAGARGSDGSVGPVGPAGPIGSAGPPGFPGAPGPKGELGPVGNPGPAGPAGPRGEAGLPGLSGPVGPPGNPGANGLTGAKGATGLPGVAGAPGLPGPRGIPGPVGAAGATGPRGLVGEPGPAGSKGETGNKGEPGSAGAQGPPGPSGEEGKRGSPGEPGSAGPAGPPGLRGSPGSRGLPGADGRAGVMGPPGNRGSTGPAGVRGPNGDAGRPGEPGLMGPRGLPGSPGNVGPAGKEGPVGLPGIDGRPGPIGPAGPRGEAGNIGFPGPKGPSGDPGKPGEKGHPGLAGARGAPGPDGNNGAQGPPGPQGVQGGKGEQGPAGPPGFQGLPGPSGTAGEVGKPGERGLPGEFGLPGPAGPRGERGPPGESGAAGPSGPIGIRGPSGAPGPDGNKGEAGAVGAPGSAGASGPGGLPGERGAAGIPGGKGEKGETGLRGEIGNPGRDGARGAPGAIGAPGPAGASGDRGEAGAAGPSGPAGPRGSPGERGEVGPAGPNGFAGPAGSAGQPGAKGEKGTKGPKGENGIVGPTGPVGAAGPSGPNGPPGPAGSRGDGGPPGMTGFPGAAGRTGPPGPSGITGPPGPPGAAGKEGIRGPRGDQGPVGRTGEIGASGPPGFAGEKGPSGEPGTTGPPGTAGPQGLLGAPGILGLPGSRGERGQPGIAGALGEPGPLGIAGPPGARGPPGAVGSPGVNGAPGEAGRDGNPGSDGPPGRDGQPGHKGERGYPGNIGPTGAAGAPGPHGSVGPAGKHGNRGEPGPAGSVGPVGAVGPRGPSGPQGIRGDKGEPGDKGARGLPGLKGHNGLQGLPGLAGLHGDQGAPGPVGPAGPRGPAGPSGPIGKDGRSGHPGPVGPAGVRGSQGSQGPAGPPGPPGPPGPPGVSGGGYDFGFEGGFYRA
# Method: Rat collagen hydrogels were prepared using rat-tail collagen type I (at 4 mg/ml in 0.02 N acetic acid) from BD Bioscience. A volume of 200 μL of the concentrated collagen solution was mixed with an equal volume of a buffer solution that was 400 mM in Tris-HCl and 400 mM in NaCl with a pH of 7.6 and with 50 μL of deuterated water (D2O). The sample mixture was transferred to an NMR tube followed by gentle mixing under agitation using a Thermolyne™ Max Mix-II apparatus. The NMR tube containing the collagen solution was placed within the RF probe housed in a 500 MHz super-conducting magnet (Bruker Avance-500 NMR spectrometer). The probe and sample bulk temperature was kept at 277 K for 3 hours and then elevated to 310 K at a rate of 1 degree/10 min to enable fibril alignment during a slow process of collagen gelation under the influence of the magnetic field (Ma 2008). The degree of fibril alignment of the collagen hydrogels was determined by use of deuterium NMR spectroscopy of the added D2O as described (Ma 2008). […]
# Randomly-deposited collagen (hydrogel) matrix was prepared following the same procedure as above for partially aligned hydrogels, except that the RF probe and the NMR tube (or test tubes) containing the collagen solution were placed outside the magnetic field. Peptides containing collagen-binding hairpins were introduced into the hydrogels in two ways, the first with the collagen stock solution diluted (50:50 in volume ratio) by the buffer of 400 mM in Tris-HCl and 400 mM in NaCl at pH 7.6 containing the peptides of interest (i.e. for FIGS. 1A & 1D), which gelates in the presence of the added peptide. Alternatively, peptides in an appropriate buffer were introduced to the top of the hydrogel matrix (i.e. for FIGS. 1B & 1C) preformed in the NMR tube (or test tube) following the procedures described above. The behavior of the peptides in the hydrogels was followed by use of NMR H-^15N HSQC spectra for ^15N-labelled peptides (FIG. 1) and/or by use of one-dimensional proton NMR spectroscopy (FIG. 2).
# Deuterium NMR spectroscopy studies of collagen responsiveness (and/or binding) for each peptide were carried out using a volume of (400-X) μL of a peptide dissolved in pure water mixed with 50 μL of a 10×PBS (phosphate-buffered saline) supplemented by sodium phosphate to a final concentration of 50 mM, with 50 μL of deuterated water (D2O) to form the reference sample (where X=0), or the peptide-collagen complex with X μL of rat-tail collagen type I (at 3.6 to 4 mg/ml in 0.02 N acetic acid from BD Bioscience) adjusted to achieve the desired final concentration of collagen. The pH value of the reference peptide samples was adjusted to match the pH of the final peptide-collagen complex in order to facilitate NMR spectral comparison. The peptide-collagen solutions were also subjected to gelation under magnetic field guidance followed by the measurement of fibril alignment (Ma 2008) as a semi-quantitative indication of peptide-collagen binding. Deuterium coupling constants measuring the degree of collagen fibril alignment were reduced by more than 1.0 Hz for MH2-wZIP4, by less than 0.5 Hz for MH2-wZIP6 and MH2-wZIP5, which parallel those observed for trpzip4, trpzip6, trpzip5 and the gb1 peptide (see Example 4). As a comparison, a solution of rat collagen at a concentration of 1.8 mg/ml in 200 mM Tris-Cl/200 mM NaCl at pH 7.6 formed a partially-aligned hydrogel with a deuterium coupling constant (Ma, 2008) of 2.5 Hz, while a solution of rat collagen at a concentration of 3 mg/ml in PBS (137 mM NaCl/2.68 mM KCl/10.1 mM Na2HPO4/1.76 mM KH2PO4) supplemented with Na2HPO4 to achieve a final concentration of 50 mM at pH 7.4 formed a partially-aligned hydrogel with a deuterium coupling constant of 4.8 Hz. A solution of human collagen at a concentration of 2.23 mg/ml in PBS supplemented with Na2HPO4 with a final concentration of 50 mM at pH 7.4 formed a partially-aligned hydrogel with a deuterium coupling constant of 1.3 Hz.
# [2] = test system: abdominal vena cava injured by FeCl3; conditions: I.V. 30 minutes after FeCl3; about 1/4 of the highest FL4247 dose
# Excerpt: The application of ferric chloride on venous and arterial vessels was therefore the method used to produce the inflamed vasculature in the animal model. The carotid artery (arterial model) and the abdominal vena cava (venous model) were the chosen vessels for the imaging experiments with injured blood vessels undergong thrombosis.
# The FeCl3 rat venous model of thrombosis was generated as described (Wang 2005) with some modifications. Briefly, rats were anesthetized with a 2.5% isoflurane/oxygen mixture and placed on a heat source (35-37° C.). The vena cava was then exposed via a midline incision and the region between the renal and iliolumbar veins was isolated. One minute after drug administration, a piece of filter paper (Gel Blot Paper, GB003, Whatman, Piscataway, N.J., USA; 7 mm diameter) saturated with 10% FeCl3 (EMD Chemicals Inc., Gibbstown, N.J., USA) was placed on the exposed surface of the vena cava and incubated for 3.5 minutes. During the application of FeCl3, the abdominal region was covered with aluminum foil. At the end of the incubation period, the filter paper was removed and the exposed viscera covered with a saline-soaked gauze.
# In these imaging experiments, there were also a 30-minute waiting time after introduction of FeCl3 to the exposed vena cava to ensure the development of substantial vascular injury and the deposition of a thrombus.
# rat-tail collagen type I [3] = molecular target: T1, rat-tail collagen type I (rat, UniProt P02454 152-1207; P02466 86-1125); experiment: proton NMR, free against with collagen
# T1 construct: also called type-I collagen; unpolymerized collagen
# T1 sequence (P02454 152-1207 limits assumed, chain 1 of 2): as the sequence (P02454 152-1207 limits assumed) above
# T1 sequence (P02466 86-1125 limits assumed, chain 2 of 2): as the sequence (P02466 86-1125 limits assumed) above
Molecule,response to / binding of collagen (NMR spectral perturbations) (rat-tail collagen type I [1]),other results
GEWTWDDA (MH2-wZIP4-F2 - does not bind collagen),lack of binding with collagen,
"KKWTWNPATGKWTWQE (KKWTWNPATGKWTWQE-NH2) [HP5W4, reference compound]",CBLH peptides,
TWRWNGSTAWTWS (CBLH peptide - pp-D7EUT8),some proton NMR perturbations are observed,
"SWTWENGKWTWK (SWTWENGKWTWK-NH2) [trpzip2, reference compound]",collagen-binding linear hairpin (CBLH) peptide,
acetyl-STWTWNGSAWTWNEGGK (Ac-STWTWNGSAWTWNEGGK),bind to type-I collagen,NMR perturbations after collagen gelation (polymerization); reversibility of collagen binding (rat-tail collagen type I [1]): essentially irreversible
TWTWNGSAWTWN (CBLH peptide - v4-gp120) [reference compound],respond to collagen,
TWTWNGTNWTRN (CBLH peptide - v4-gp160),responsive to the presence of collagen,
"SWTYENGKYTWK (SWTYENGKYTWK-NH2) [WYYW-trpzip2, reference compound]",retains a significant capacity for binding collagen,
SWTVENGKVTWK (W2W11-trpzip2 - does not bind collagen) [reference compound],loses the collagen-binding capacity,
GEWTWNPATGKWTRTE (GEWTWNPATGKWTRTE-NH2) [CBLH2],almost identical collagen-binding characteristics,NMR perturbations after collagen gelation (polymerization); reversibility of collagen binding (rat-tail collagen type I [1]): certain degree of reversibility
KTWNPATGKWTE (HP7 - does not bind collagen) [reference compound],does not respond to the addition of collagen,
KEWTWNPATGKWTRTE (KEWTWNPATGKWTRTE-NH2) [CBLH4],almost identical collagen-binding characteristics,NMR perturbations after collagen gelation (polymerization); reversibility of collagen binding (rat-tail collagen type I [1]): certain degree of reversibility
STWTWNGTNWTRNDGGC-Fluor750 (not fully specified (C-terminus); printed as STWTWNGTNWTRNDGGC-Fluor750; also: HiLyte Fluor750 conjugate) [FL4447],,fluorescence at the injured vena cava (whole-body and post-mortem imaging) [2]: somewhat reduced level of local fluorescence as compared to FL4247/FL4312
"SWTYEGNKYTWK (SWTYEGNKYTWK-NH2) [Y4Y9-trpzip1, reference compound]",retain the collagne-binding capacity,
KEWTYNPATGKWTWTE [CBLH3],almost identical collagen-binding characteristics,NMR perturbations after collagen gelation (polymerization); reversibility of collagen binding (rat-tail collagen type I [1]): certain degree of reversibility
"MH2-wZIP5: bivalent thrombin inhibitor containing the trpzip5 sequence (WO/2012/142696) (GEWTYDDATKTFTWTE; also: bivalent thrombin inhibitor, other parts, small tags and cut ends not in chain)",varying degrees of entrapment,NMR perturbations after collagen gelation (polymerization); reversibility of collagen binding (rat-tail collagen type I [1]): reduced degree of proton NMR signal perturbations; also recorded: more pronounced loss of resonance perturbations as compared to MH2-wZIP6

Molecule,response to / binding of collagen (NMR spectral perturbations) (rat-tail collagen type I [1]),other results
"SWTYEGNKWTWK (SWTYEGNKWTWK-NH2) [Y4-trpzip1, reference compound]",retain the collagne-binding capacity,
"MH2-wZIP6: bivalent thrombin inhibitor containing the trpzip6 sequence (WO/2012/142696) (GEWTWDDATKTWTVTE; also: bivalent thrombin inhibitor, other parts, small tags and cut ends not in chain)",varying degrees of entrapment,NMR perturbations after collagen gelation (polymerization); reversibility of collagen binding (rat-tail collagen type I [1]): reduced degree of proton NMR signal perturbations
GEWTYNPATGKWTWTE (GEWTYNPATGKWTWTE-NH2) [CBLH1],almost identical collagen-binding characteristics,NMR perturbations after collagen gelation (polymerization); reversibility of collagen binding (rat-tail collagen type I [1]): certain degree of reversibility
IRFTDGGSWTWEGNKWTWKGGDFEEIPEEYLQ (MH2-wZIP1GG - molecule of Formula (I)),responds similarly to collagen binding,
IRFTDGEWTWDDA (MH2-wZIP4-F1 - does not bind collagen),does not respond to collagen binding,
acetyl-STWTWNGTNWTRNDGGK (Ac-STWTWNGTNWTRNDGGK),bind to type-I collagen,NMR perturbations after collagen gelation (polymerization); reversibility of collagen binding (rat-tail collagen type I [1]): certain degree of reversibility
"SWTWEGNKWTWK (SWTWEGNKWTWK-NH2) [trpzip1, reference compound]",respond to collagen,
"GEWVWDDATKTWHWTE (GEWVWDDATKTWHWTE-NH2) [trpzip8, reference compound]",CBLH peptides,
GEWTWDDATKTWTWTEGDFEEIPEEYL (MH2-wZIP4-F3 - molecule of Formula (I)),responds fully to collagen,
B1,,binding result (rat-tail collagen type I [3]): no binding
B2,,binding result (rat-tail collagen type I [3]): no binding
B3,,binding result (rat-tail collagen type I [3]): no binding
B4,,NMR perturbations / release after collagen degradation by a collagenase (rat-tail collagen type I [1]; collagenase treatment): gradually came into view while the collagen gel dissembles in the presence of a collagenase
B5,,binding result (rat-tail collagen type I [3]): no binding
B6,,binding result (rat-tail collagen type I [3]): no binding

# — patent US20160168210A1, “DERIVATIVES OF COLLAGEN-BINDING HAIRPIN PEPTIDES” (NATIONAL RESEARCH COUNCIL OF CANADA, priority 2012, published 2016)
